Results from patent publication US12365732 (23ANDME, dated 2025).

T1: cy-CD96 (soluble, extracellular domain) (cynomolgus monkey, UniProt P40200 22-516 (human entry), biotinylated in Octet and blocking ELISA)
T1 construct: the assays name only cy-CD96; also called biotinylated cy-CD96
T1 chain: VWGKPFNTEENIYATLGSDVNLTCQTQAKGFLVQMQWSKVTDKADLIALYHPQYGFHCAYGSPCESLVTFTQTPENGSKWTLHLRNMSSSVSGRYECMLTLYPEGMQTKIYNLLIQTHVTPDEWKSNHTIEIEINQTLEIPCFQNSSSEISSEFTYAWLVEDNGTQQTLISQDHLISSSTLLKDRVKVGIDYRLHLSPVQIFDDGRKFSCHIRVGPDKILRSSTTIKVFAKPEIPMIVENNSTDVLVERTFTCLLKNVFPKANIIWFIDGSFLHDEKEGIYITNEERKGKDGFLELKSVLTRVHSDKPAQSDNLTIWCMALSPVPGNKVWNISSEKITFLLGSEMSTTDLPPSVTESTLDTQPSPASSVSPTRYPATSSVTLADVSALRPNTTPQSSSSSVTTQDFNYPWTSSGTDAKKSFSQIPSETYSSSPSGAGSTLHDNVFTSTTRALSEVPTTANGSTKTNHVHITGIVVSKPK

T2: hu-CD226 His tag (human, UniProt Q15762 19-247, limits assumed, biotinylated)
T2 sequence (looked up): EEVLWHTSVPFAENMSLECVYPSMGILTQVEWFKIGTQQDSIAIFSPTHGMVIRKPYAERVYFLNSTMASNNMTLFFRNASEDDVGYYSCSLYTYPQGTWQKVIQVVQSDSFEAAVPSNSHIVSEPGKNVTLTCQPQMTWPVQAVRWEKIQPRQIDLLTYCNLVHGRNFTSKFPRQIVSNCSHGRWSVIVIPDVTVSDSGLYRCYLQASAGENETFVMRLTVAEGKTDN

T3: cy-CD226 His tag (cynomolgus monkey, UniProt A0A2K5W1Z6 19-247, biotinylated)
T3 sequence: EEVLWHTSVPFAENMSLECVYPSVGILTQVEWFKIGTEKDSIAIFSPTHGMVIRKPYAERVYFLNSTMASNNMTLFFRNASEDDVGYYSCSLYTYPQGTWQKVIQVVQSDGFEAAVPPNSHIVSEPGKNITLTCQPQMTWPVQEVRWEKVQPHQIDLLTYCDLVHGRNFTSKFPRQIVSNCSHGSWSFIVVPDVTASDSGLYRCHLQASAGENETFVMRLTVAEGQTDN


Key:
[1] = target: T1, cy-CD96 (soluble, extracellular domain); assay: SPR 25C, IgG on Protein A, CD96 analyte
Method: SPR measurement with a BIACORE™ 8K instrument was performed to determine the monovalent binding affinity of mAb1.v7 and h10G1 IgG to hu-CD96, cy-CD96, and mo-CD96. Briefly, antibodies were diluted at 0.5 µg/mL in HBS-P buffer (0.01 M HEPES pH 7.4, 0.15 M NaCl, 0.005% Surfactant P20) and applied to the Protein A chip at 30 µL/min flow rate for 60 s in flow cell 2 (FC2). Then 3-fold serial dilutions of hu-CD96, cy-CD96, or mo-CD96 in HBS-P buffer (0.01 M HEPES pH 7.4, 0.15 M NaCl, 0.005% surfactant P20) from (0.4 nM) to high (100 nM) were injected (flow rate: 30 µL/min) at 25° C. to both flow cell 1 (FC1) and flow cell 2 (FC2). The sensorgram was recorded and subject to reference and buffer subtraction before evaluating by BIACORE® 8K Evaluation Software (version 1.1.1.7442). Association rates ($kon$) and dissociation rates ($koff$) were calculated using a simple one-to-one Langmuir binding model.

hu-CD226 His tag = target: T2, hu-CD226 His tag; assay: SPR 25C, biotin-CD226-His captured, IgG analyte
Method: (§1) To determine the binding affinity to hu-CD226 and cy-CD226 of mAb1.v7.NGS8, h10G1, hCD155 and anti-hCD226 antibody DX11 (Abcam, cat #Ab33397), SPR measurement with a BIACORE™ 8K instrument was performed. Briefly, a 1:4 dilution of Biotin CAPture Reagent (GE Healthcare) into HBS-EP buffer (0.01 M HEPES pH 7.4, 0.15 M NaCl, 3 mM EDTA, 0.005% Surfactant P20) was applied to the chip at 2 µL/min flow rate. For the kinetics measurements, 5 µg/ml of biotinylated hu-CD226 His tag (Sino biological, cat #10565-H08H) and cy-CD226 His tag (Arco biosystems, cat #DN1-052H9) was captured at 10 µL/min to achieve ~50 response units in the second flow cell (FC2). FC1 was kept as a reference. Next, 3-fold serial dilutions of IgG in HBS-P buffer (0.01 M HEPES pH 7.4, 0.15 M NaCl, 0.005% surfactant P20) from low (1.3 nM) to high (1000 nM) concentration were injected (flow rate: 30 µL/min) at 25° C. The sensorgram was recorded and subject to reference and buffer subtraction before evaluating by BIACORE® 8K Evaluation Software (version 1.1.1.7442). Association rates ($kon$) and dissociation rates ($koff$) were calculated using a simple one-to-one Langmuir binding model. The equilibrium dissociation constant (K_D) value was calculated as the ratio of $koff/kon$. […]

cy-CD226 His tag = target: T3, cy-CD226 His tag; assay: SPR 25C, biotin-CD226-His captured, IgG analyte
Method: as §1

hu-CD96 Fc = target: T4, hu-CD96 Fc (human, biotinylated in Table 16); assay: SPR (Biacore), Fab
T4 construct: also called biotinylated hu-CD96-Fc

Binder	Kd [1]	binding result (hu-CD226 His tag)	binding result (cy-CD226 His tag)	Kd (hu-CD96 Fc)	koff (hu-CD96 Fc)	kon (hu-CD96 Fc)
h10G1 IgG (humanized 10G1) (antibody, V domains shown, human IgG1 N297G) VH: EIQLVQSGSELKKPGASVKVSCKASGYPFTTYGMSWVRQAPGQGLEWMGWINTDSGVPTYADDFKGRFVFSLDTSVSTAYLQISSLKAEDTAVYFCARNIYYGWGNFDYWGQGTLVTVSS VL: EIVMTQSPDFQSVTPKEKVTITCRASQDIYRNLHWYQQKPDQTPKLLIKHASDSISGIPSRFSGSGSGTDFTLTINSLEAEDAAAYYCLQGYSMPYTFGGGTKVEIKG	0.74 nM	no binding (tested: 1000 nM highest)	no binding (tested: 1000 nM highest)			
mAb1.v7 Fab (Fab, V domains shown) VH: EVQLVQSGAEVKKPGASVKVSCKASGFTFTNNWMHWVRQAPGQGLEWIGMIHPNSGITNINEKFKNRVTMTTDTSTSTAYMELRSLRSEDTAVYYCRSDGTYEGYFDYWGQGTLVTVSS VL: DIQLTQSPSSLSASVGDRVTITCKASQNVGTAIVWYQQKPGKAPKVLIYSASTRYTGVPSRFSGSGSGTDFTLTISSLQPEDFATYYCQQYSSSPLTFGQGTKVEIK				44.6 nM	0.000817 s⁻¹	18300 M⁻¹ s⁻¹
